Fewer inactive variants are shown than the library holds.
B1: TPR 5TU (parent)
chain: GGAUCUUCUCGAUCUAACAAAAAAGACAAAUCUGCCACAAAGCUUGAGAGCAUCUUCGGAUGCAGAGGCGGCAGCCUUCGGUGGCGCGAUAGCGCCAACGUUCUCAACUAUGACACGCAAAACGCGUGCUCCGUUGAAUGGAGUUUAUCAUG

Variants of: B1
Assay: polymerase ribozyme fitness, log enrichment relative to wild type (log ratio); higher = more active; in vitro selection for triplet polymerase activity
Method in brief: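 For each subunit of a heterodimeric triplet polymerase ribozyme, a mutant library was built by PCR and transcribed, then taken through a single in vitro selection round in triplicate. Selection involved annealing to a biotinylated primer, the partner subunit and triplets, incubation frozen at −7 °C, gel excision of extended constructs, capture on streptavidin beads and RT-PCR. Genotypes were retained after Illumina sequencing of inputs and outputs only with ≥10 input reads and ≥1 read in each output. Fitness is defined as the logarithm of a genotype's enrichment relative to wild-type enrichment, using inverse-variance-weighted averages across replicates, with the logarithm taken to base 2.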

Polymerase ribozyme fitness (log ratio), -3.63:
GGAUCUUCUCGAUGUAACAAAAACGACAAAUCUGCCACAAAGCUUGAGAGCAUCUUCGGAUGCAGAGGCGGCAGCCUUCGGUGGCGCGAUAGCGCCAACGUUCUCAACUAUGACACGCAAAACGCGUGCUCCGUUGAAUGGAGUUUAUCAUG [C14G A24C]

Polymerase ribozyme fitness (log ratio), ≤ -4.2:
GGAUCUUCUCGAUGUAACAAACAAGACAAAUCUGCCACCAAGCUUGAGAGCGUCUUCGGAUGCAGAGGCGGCAGGCUUCGGGGGCGCGAUAGCGCCAACGUUCUCAACUAUGACACGCAAAACGCGUGCUCCGUUGAAUUGAGUUUAUCAUG [C14G A22C A39C A52G C75G U82G G140U]
GGAUCUUCUCGAUGUAACAAAAAAGGCAAAUCUGCCACAAAGCUUGAGAGCAUCUUCUGAUGCAGAGGCGGUAGCCUUCGGUGGCGCGAUAGCGCCAACGUUCUCAACUAUGACACGCAAAGCGCGUGCUCCGUUGAAUGGAGUUUAUCAUG [C14G A26G G58U C72U A122G]
GGAUCUUCUCGAUGUAACAAAAACGACAAAUCUGCCACAAAGCUUGAGAGCAUCUUCGGGUACACAGGCGGCAGCCUUCGGUGGCGUGAUAGCGCCAACGUUCUCAACUAUGACACGCAAAACGCGUGCUCCGUUGAAUGGAGUGUAUCAUG [C14G A24C A60G G62A G65C C87U U145G]
GGAUCUUCUCGAUGUAACAAACAAGACAAAUCUGCCACAAAGCUUGAGAGCUUCUUCGGAUGCAGAGGCGGCAGCCUUCGGUGGCGCGAUAGCGCAUACGUUCUCAACUAUGACACUCAAAACGCGUGCUCCGUUGAAUGGAGUUUAUCAUG [C14G A22C A52U C96A A97U G117U]
GGAUCUUCUCGAUGUAACAAAAAAGUGAAAUCUGACACAAAGCUUGAGAGCCUCUUCGGAUGCAGAGGCGGCAGCCUUCGGUGGCGCGAUGGCGCCAACGUUCUCAGCUAUGACACGCAAAACGCUUGCACCGUUGAAUGGAGUUUAUCAUG [C14G A26U C27G C35A A52C A91G A107G G126U U130A]
GGAUCUUCUCGAUGUAACAAAAGAGACAAAUCUGCCACAAAGCUUGAGAGCAUCUUCGGAUGCAGAGGCGGCAGCCUUCGGUGGCGCAAUAGCGCCAACGUUCUCAACUAUGACACGCAAAACGCGUGCUCCGUUGAAUGGAGUUUAUCAUG [C14G A23G G88A]
GGAUCUUCUCGAUGUAACAAAAAAGUCAAAUCUGCCACAAAGCUUGAGAGCAUCUUCCGAUGCAGAGGCGGCAGCCUUCGGUGGCGCGUUAGCGCCAACGUUCUCAACUAUGACACUCACAACGAGUGCUCCGUUGAAUGGAGUUUAUCAUG [C14G A26U G58C A89U G117U A120C C125A]
GGAUCUUCUCGAUGUAACAAAAUAGACCAAUCUGCCACAGACCUUGAGAGCAUCUUCGGAUGCAGAGGCGGCAGCCUUCGGUGGCGCGUUAGCGCCAACGUUCUCAACUAUGACAGGCAAAACCCGUGCUCCGGUGAAUGGAGUUUAUCAUG [C14G A23U A28C A40G G42C A89U C116G G124C U134G]
GGAUCUUCUCGAUGUAACAAAAAAGACGAAUCUGCCACAAAGCUUGAGAGUUUCUUCGGAUGCAGAGGCGGCAGCCUUCGGUGGCGCAAUAGCGCCAACGUUCUCAACGAUGACACGCAAAACGCGUGCUCCGUUGAAUGGAGUUUAUCAUG [C14G A28G C51U A52U G88A U109G]
GGAUCUUCUCGAUGUAACAAAAGAGACAAAUCUGCCACAAAGCUUGAGAGCAUCUUCGGAUGCAGAGGCGGCGGCCUUCGGUGUCGCGAUAGCGCCAACGUUCUCAACUAUGACACGCAAAUCGCGUGCUCCGUUGAAUGGAGUUUAUCAUG [C14G A23G A73G G84U A122U]
GGAUCUUCUCGAUGUAACAAAGAAGACAAAUCUGCCACAAAGCUUGAGAGCAUUUUCGGAUGCAGAGGCUGCAGCCUUCGGUGGCGCGAUAGCGUAAACGUUCUCAACUAUGAUACGCAAAACGCGUGCUCCGUUGCAUGGAGUUUAUCAUG [C14G A22G C54U G70U C95U C96A C114U A137C]
GGAUCUUCUCGAUGUAACAAAAAUGACUAAUCUGCCACAAAGUUUGAGAGCAUCUUCGGAUGCAGAGGCGGCGGCCUUCGGCGGCGCGAUAGCGCCAACGUUGUCAACUAUGACACGCAAAACGCGUGCUCCGUUAAAUGGAGUUCAUCAUG [C14G A24U A28U C43U A73G U82C C103G G136A U146C]
GGAUCUUCUCGAUGUAACAAAAAAGUCAAAUCUGCCACAAAGCUUGAGAGCAUCUUCGCAUGCAGAGGCGGCAGCCUUCGGUGGCCCGAUAGCGCCAACAUUCUCAACUAUGACACGCAAAACGCGUGCUCCGUUUAAUGGAGAUUAUCAUG [C14G A26U G59C G86C G100A G136U U144A]
GGAUCUUCUCGAUGUAACAAAUAAGGCCAAUCUGCCACAAAGCUUGAGAGCAUCUUCGGAUGCAGAGGCGGCAGCCUUCGGUGGCGCGAUAGCGCCAACGUUCUCAACUAUGACACGCAAAACGCGUGCUCCGAUGAAUGGAGUUUAUCAUG [C14G A22U A26G A28C U134A]
GGAUCUUCUCGAUGUAACAAAAAAGUCAAUUCUGCCACAAAGCUUGAGAGCAUCUUCGGAUGCAGAGGCGGCAGACUUCGGUGGCGCGAUAGUGCCAACGUUCUCAACUAUGACACGCAAAACGCGUGCUCCGUUGAAUGAAGUUUAGCAGG [C14G A26U A30U C75A C93U G141A U148G U151G]
GGAUCUUCUCGAUGUAACAAAAAAGACGAAAUUACCACAAACCUUGAGAGCAUCGUCGGAUGCAGAGGCGGCAGCCUUCGGUGGCGCGAUAGCUCCAACGUUCUCAACUAUGACACGCAAAACGCGUGCUCCGUUGAAUGGAGUUUAUCAUG [C14G A28G U31A C32U G34A G42C U55G G94U]

Polymerase ribozyme fitness (log ratio), -4.1:
GGAUCUUCUCGAUGUAACAAAACAGACAAAUUUGCCACAAAGCUUGAGAGCAUCUUCGGAUGCAGAGGCGGCAGCCUUCGGUGGCGCGAUAGCGCUAACGUUCUCAACUAUGACACGCAAAACGCGUGCUCCGUUGAAUGGAGUUUAUCAUG [C14G A23C C32U C96U]

Polymerase ribozyme fitness (log ratio), -3.18:
GGAUCUUCUCGAUGUAACAAAAAUGACAAAUCUGCCACAAAGCUUGAGAGCAUCUUCGGAUGCAGAGGCGGCAGCCUUCGGUGGCGCGAUAGCGCCAACGUUCUCAACUAUGACACGCAAAACGCGUGCUCCGUUGAAUGGAGUUUAUCAUG [C14G A24U]
